Results on 24 molecules are retold here after patent publication US20200247855A1 (published 2020).

For orientation: Kd means the constant that tells how readily two partners part at equilibrium.

Some targets named below: CXCL2; CXCL1_HUMAN (human, UniProt P09341 35-107); CXCL8_HUMAN (human, UniProt P10145 28-99); CXCL5; CXCL6; CXCL10_HUMAN (human, UniProt P02778 22-98); CXCL13; CXCL3_HUMAN (human, UniProt P19876 35-107); CXCL4.
Assay in all cases: BLI
(In general: BLI is a label-free optical method that tracks binding on a fibre tip over time.)

The next assay concerns the target T1, CXCL11_HUMAN (human, UniProt O14625 22-94).
T1 chain: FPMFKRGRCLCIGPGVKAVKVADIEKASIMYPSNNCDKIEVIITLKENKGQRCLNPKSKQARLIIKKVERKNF

CXCL1_HUMAN, sequence (P09341 35-107): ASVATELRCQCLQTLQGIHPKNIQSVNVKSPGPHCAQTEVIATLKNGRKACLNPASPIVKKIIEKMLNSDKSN
CXCL8_HUMAN, sequence (P10145 28-99): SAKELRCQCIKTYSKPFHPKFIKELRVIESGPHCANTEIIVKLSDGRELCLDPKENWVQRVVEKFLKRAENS
CXCL10_HUMAN, sequence (P02778 22-98): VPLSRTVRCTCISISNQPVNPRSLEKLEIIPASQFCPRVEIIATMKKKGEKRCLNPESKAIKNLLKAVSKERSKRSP
CXCL3_HUMAN, sequence (P19876 35-107): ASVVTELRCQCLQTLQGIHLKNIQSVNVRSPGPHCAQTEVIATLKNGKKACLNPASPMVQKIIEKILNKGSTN

B1: P1168_IXORI (other)
chain: GQDTDGKEKSDEYELFTVEYCGTNCTQLENGSWTACTGKNGTCRCFHENDKKVGLCLSTEYTDFSEYPDPNSEEIKAASPLP
Regarding B1, the Kd in the assay with CXCL2 turned out to be 29.9 nM; with CXCL1_HUMAN, 5.91 nM; with CXCL8_HUMAN, 20.7 nM.

B2: P1134_IXORI (other)
chain: NEEVFTVEYCGMNCTQKSDGTWTECSGKNKDCRCYHESDAREGLCLSTEYTDFSQFETPSNSDLEAATPRPRKTLYPVRNPHGPKTRGLGYDKRILRDRVKFLI
For the molecule B2, the dissociation constant Kd in the assay with CXCL1_HUMAN worked out at 27.3 nM.

B3: P1090_IXORI (other)
chain: GSKELSGPESSENSIEAAFCDTNCTEGTDGVWSGCSAGCFCVHVGNSTVGRCMTFNGVDGG
Consider B3, for which the Kd was determined as 3.03 nM with CXCL2; 43 nM with CXCL5; 2.82 nM with CXCL6; 3.85 nM with CXCL11_HUMAN; 23.9 nM in the assay with CXCL10_HUMAN; 12.5 nM with CXCL13. Further, the dissociation constant (Kd) with CXCL1_HUMAN came to 3.55 nM; with CXCL3_HUMAN, 7.67 nM.

B4: P1132_IXORI (other)
chain: LSDEDELFSVEYCGTNCTKQDTGSWTTCSGNCTCYHEDGKKVGLCLSTEYTDFTKFPKPTSEEIANARPLPKREKTLN
As to B4, the equilibrium dissociation constant (Kd) with CXCL2 is 18.6 nM; in the assay with CXCL5, 152 nM; with CXCL1_HUMAN, 11.9 nM; with CXCL8_HUMAN, 32.8 nM.

B5: P1162_IXORI (other)
chain: LNDEELFTVDYCGTNCTQQPNGSWTTCPGNCSCYHEDGKTDGFCLSTEYTDFTQFPNLTSEEMDAATPRPE
Consider B5, for which the dissociation constant (Kd) came to 14.4 nM in the assay with CXCL2; 32.1 nM with CXCL5; 2.66 nM with CXCL1_HUMAN; 12.2 nM with CXCL8_HUMAN; 60.1 nM in the assay with CXCL3_HUMAN.

B6: P1172_IXORI (other)
chain: LHEDEIFTVDYCGTNCTKQSNGSWTTCPGNCSCYHEDGKTDGFCLSTEYTDFTQFPNLTSEEMDAATPRPE
Take B6: the Kd in the assay with CXCL2 came out at 26 nM; with CXCL5, 59.3 nM; with CXCL1_HUMAN, 5.59 nM; with CXCL8_HUMAN it was 26.7 nM.

B7: P458_IXORI (other)
chain: GSKQPGAAGSSSDSVEAVFCPTNCTKGTNGAWSGCSDDCICVHVGENTEGSCMKFSGDYDYPTPEA
B7: the dissociation constant (Kd) was determined as 4.55 nM in the assay with CXCL2; 19.1 nM with CXCL5; 4.97 nM with CXCL6; 13.8 nM in the assay with CXCL13; 16.6 nM in the assay with CXCL1_HUMAN; 7.83 nM in the assay with CXCL3_HUMAN.

B8: P942_IXORI (other)
chain: NQLSGPQSSANSNEAVFCDTNCTQGTDEAWSGCRGDCFCVYVGNSTEGRCMMLSGDFDYSTPGAED
As for B8, the Kd in the assay with CXCL2 turned out to be 6.48 nM; with CXCL4, 148 nM; with CXCL5, 21.1 nM; with CXCL6, 7.28 nM; with CXCL11_HUMAN, 12.4 nM; with CXCL10_HUMAN it was 133 nM. The Kd with CXCL13 was 39.5 nM; with CXCL1_HUMAN, 3.09 nM; in the assay with CXCL3_HUMAN it was 5.04 nM.

B9: P1124_IXORI (other)
chain: DSKGTSDSQDSTKSIKVDFCETNCTKTDGGWTGCTGDCICVSVGDSIEGRCMDFG
Take B9: the Kd with CXCL2 was 13.8 nM; with CXCL5 it was 26.4 nM; in the assay with CXCL6 it was 231 nM; with CXCL13 it was 256 nM; with CXCL1_HUMAN it was 7.61 nM; with CXCL3_HUMAN, 8.84 nM.

B10: P1127_IXORI (other)
chain: AGKDDEHFSVDYCGMNCTQQEDGSWTACSGRNGECRCYHESGKRSGLCLSTTYIDFSEYGNLSDSDIAAASPRLSMKESH
Consider B10, for which the Kd with CXCL2 was determined as 27.8 nM; with CXCL5, 26.6 nM; with CXCL1_HUMAN, 1.42 nM; with CXCL8_HUMAN, 13.3 nM; in the assay with CXCL3_HUMAN, 68.8 nM.

B11: P1095_IXORI (other)
chain: HSPVAGSEVQKLTSDPNDDIDVSYCGMNCTVVNGKSDECSENCKCLHEGDDPKGICVAITYFGDWGDPNDDPKINEATPQTQIFEKKRK
In the assay with CXCL8_HUMAN, B11 gave a Kd of 110 nM.

B12: P1128_IXORI (other)
chain: KDDEHFSVDYCGMNCTQQEDGSWTACSGRNEECRCYHESGKKNGLCLSTTYIDFSQYGNPSDSDIAAASPRP
As to B12, the equilibrium dissociation constant (Kd) came to 5.57 nM with CXCL2; 62.2 nM with CXCL5; 0.722 nM in the assay with CXCL1_HUMAN; 2.3 nM with CXCL8_HUMAN; 38.5 nM with CXCL3_HUMAN.

B13: P1096_IXORI (other)
chain: HTTVTGSVEGKPNNPNEDIEVSYCRMNCTVENGVSSACSGDCVCVHRDNEPNGICVEITYFGDFGDPSQDPSIDEAAPRESVSKRRSNGES
For B13, the Kd with CXCL8_HUMAN was determined as 44.7 nM.

B14: P1166_IXORI (other)
chain: GPETKEDKKSDVYELFTVEYCGTNCTLLTNGRWTACTGKKGTCRCYHESGEKVGLCLSTEYTDFSEYPNPKSSEIDAAAPLPRETH
Take B14: the Kd in the assay with CXCL2 came out at 149 nM; with CXCL1_HUMAN, 12.9 nM; with CXCL8_HUMAN, 129 nM.

B15: P1104_IXORI (other)
chain: ESKEASASQGPGKSFKVEFCETNCTENNGVWSGCTGDCICVSVGDSKEGRCMDLGDKVIDTPVAQG
Turning to B15, the Kd with CXCL2 was 82.3 nM; with CXCL5, 245 nM; with CXCL6, 34.3 nM; with CXCL13, 220 nM; with CXCL1_HUMAN it was 14.4 nM; with CXCL3_HUMAN, 43.7 nM.

B16: P1086_IXORI (other)
chain: GSKGQRASQVSETSITAEFCDTSCTQGTDKTWSGCSGDCFCVHVGNDTEGRCMRWDGDYPSAEEEE
On to B16, for which the Kd in the assay with CXCL2 worked out at 34 nM; in the assay with CXCL5, 26 nM; with CXCL6 it was 10.7 nM; with CXCL10_HUMAN, 18.7 nM; in the assay with CXCL13, 22.7 nM; with CXCL1_HUMAN it was 11.4 nM. The same molecule had a Kd in the assay with CXCL3_HUMAN of 15.2 nM.

B17: P1100_IXORI (other)
chain: GSKGSSASQSSDNSVVAKFCDTNCTINEGGKWTECKGGCFCVHVGNETVGRCMKLDGDYDYPSPKPEE
For the molecule B17, the dissociation constant (Kd) came out at 185 nM with CXCL2; 50.8 nM with CXCL5; 15.2 nM in the assay with CXCL6; 102 nM with CXCL11_HUMAN; 380 nM with CXCL10_HUMAN; 714 nM in the assay with CXCL13. For the same molecule, the dissociation constant Kd came to 49.9 nM with CXCL1_HUMAN and 55.9 nM with CXCL3_HUMAN.

B18: P1077_IXORI (other)
chain: GSKQLIGPQSSTNSIKAEFCDTNCTAGTNGIWNGCSGDCFCTHVGNSTEGRCMKITGFDEYPTSEAEE
Turning to B18, the Kd stood at 264 nM in the assay with CXCL2; 55.7 nM in the assay with CXCL5; 29.3 nM in the assay with CXCL6; 538 nM with CXCL11_HUMAN; 7.53 nM with CXCL1_HUMAN; 16 nM with CXCL3_HUMAN.

B19: P1078_IXORI (other)
chain: GSKGSSAQQSSHDSIKAEFCETNCTMKTGGKWTQCHGGCFCVHVGNETVGRCIKLDGDYDYPSSKHEE
Turning to B19, the Kd with CXCL2 came out at 68.3 nM; in the assay with CXCL5 it was 39.2 nM; with CXCL6 it was 9.24 nM; with CXCL11_HUMAN, 16.7 nM; in the assay with CXCL13, 255 nM; in the assay with CXCL1_HUMAN, 6.35 nM. This molecule also returned a Kd in the assay with CXCL3_HUMAN of 43.8 nM.

B20: P1229_IXORI (other)
chain: DDEFFTVDYCGMNCTLQQDGSWTPCTQKNAECKCYHESGSSVGLCLSTAYTDFNQFGDPNNSDLDAATPRHPDASSR
On to B20, for which the figures for the Kd with CXCL1_HUMAN and in the assay with CXCL8_HUMAN were 13.4 nM and 30.7 nM, respectively.

B21: EVA3_RHISA (protein)
chain: LVSTIESRTSGDGADNFDVVSCNKNCTSGQNECPEGCFCGLLGQNKKGHCYKIIGNLSGEPPVVRR
Take B21: the dissociation constant Kd stood at 5.73 nM with CXCL1_HUMAN, 2.57 nM in the assay with CXCL8_HUMAN and 7.37 nM in the assay with CXCL3_HUMAN.

B22: P1074_IXORI (other)
chain: GSKESSAHQSSDDSIKAEFCDAKCTMKTDGKWTQCHGGCFCVHVGNETEGRCMRLDGDYDYPSTQPEE
In the case of B22, the dissociation constant Kd is 157 nM in the assay with CXCL4; 42.7 nM in the assay with CXCL5; 12 nM in the assay with CXCL11_HUMAN; 40.7 nM with CXCL10_HUMAN; 95.8 nM with CXCL13; 27.8 nM with CXCL1_HUMAN. The molecule also had a Kd in the assay with CXCL3_HUMAN of 24 nM.

B23: P1170_IXORI (other)
chain: LGDEDQLFSVEYCGTNCTQQDDGKWTPCSGKNGKCKCYHEDGKRYGLCLYTEYTDFSQYPNPEGSEIENTRPRP
Take B23: the equilibrium dissociation constant (Kd) with CXCL1_HUMAN was determined as 59.6 nM; with CXCL8_HUMAN it was 12.3 nM.

B24: P1174_IXORI (other)
chain: LNNENELFSVEYCGANCTQQDNGSWTKCKGNCTCYHEDGKRYGLCLSTEYTDFTQFPKPTSEEIADASPRPKETNSH
Regarding B24, the figures for the dissociation constant Kd in the assay with CXCL1_HUMAN and with CXCL8_HUMAN were 15.4 nM and 81.7 nM, respectively.
